Values quoted from earlier work, collected in patent publication US12453725B2, “Treatment of inflammatory disease” (Celleron Therapeutics Limited, priority 2019, dated 2025).

What was measured:
[1] = in vivo; cited from earlier work
[2] = human, in vivo, cited from earlier work
[3] = human, in vivo; cited from earlier work

| Substance | colitis, listed frequency of GI side effect [1] | grade 3/4 diarrhoea, patients [2] | abnormal liver tests [3] | diarrhoea or colitis [3] | disorders of hormone-producing glands [3] | immune-related colitis, patients [3] [%] | kidney inflammation [3] | lung inflammation [3] | rash [3] | incidence of grade 3/4 colitis ([2]; 5 mg/kg) [%] | enterocolitis (grade 3 or 4 symptoms and/or biopsy proven) [2] [%] |
| --- | --- | --- | --- | --- | --- | --- | --- | --- | --- | --- | --- |
| pembrolizumab: humanized IgG4 monoclonal antibody that binds the programmed cell death-1 receptor | common | 1%-2% | – | – | – | – | – | – | – | – | – |
| nivolumab: human monoclonal antibody that blocks the interaction between PD-1 and its ligands, PD-L1 and PD-L2; IgG4 kappa immunoglobulin | – | 1%-2% | clinical trials, between 7 patients in 100 had abnormal liver | nivolumab clinical trials, 13 patients in 100 developed | trials, 10 patients in 100 developed disorders of hormone- | 13 | nivolumab clinical trials, 3 patients in 100 developed kidney | clinical trials, 3 patients in 100 developed lung | between 26 patients in 100 developed rash. Signs or | – | – |
| ipilimumab: approved checkpoint inhibitor monoclonal antibody targeting CTLA-4 | – | 10% | – | – | – | – | – | – | – | 13 | 21 |
